The target in one assay is T1, PsaB RC subunit of PSI (Synechocystis sp. PCC 6803, UniProt P29255 1-731).
T1 construct: PsaB of Synechocystis sp; PCC 6803; source: endogenous, Synechocystis sp; PCC 6803 strain His-D2/ΔCP47; co-purified with His-tagged D2 (Ni-NTA, sucrose gradient)
Briefly: cryo-EM structure; RCII/PSI complex co-purified from Synechocystis via His-tagged D2; 0.1% FOM; two classes at 3.2 Å and 3.1 Å, PSI-focused map at 2.9 Å. The settings on record: both partners purified.

A further assay addresses T2, PsaI subunit of PSI (Synechocystis sp. PCC 6803, UniProt Q55330 1-40).
T2 construct: PsaI of Synechocystis sp; PCC 6803; source: endogenous, Synechocystis sp; PCC 6803 strain His-D2/ΔCP47; co-purified with His-tagged D2 (Ni-NTA, sucrose gradient)
T2 chain (looked up): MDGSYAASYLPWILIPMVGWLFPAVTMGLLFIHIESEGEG
Described as above. To be noted: both partners purified.

T1 sequence (P29255 whole entry): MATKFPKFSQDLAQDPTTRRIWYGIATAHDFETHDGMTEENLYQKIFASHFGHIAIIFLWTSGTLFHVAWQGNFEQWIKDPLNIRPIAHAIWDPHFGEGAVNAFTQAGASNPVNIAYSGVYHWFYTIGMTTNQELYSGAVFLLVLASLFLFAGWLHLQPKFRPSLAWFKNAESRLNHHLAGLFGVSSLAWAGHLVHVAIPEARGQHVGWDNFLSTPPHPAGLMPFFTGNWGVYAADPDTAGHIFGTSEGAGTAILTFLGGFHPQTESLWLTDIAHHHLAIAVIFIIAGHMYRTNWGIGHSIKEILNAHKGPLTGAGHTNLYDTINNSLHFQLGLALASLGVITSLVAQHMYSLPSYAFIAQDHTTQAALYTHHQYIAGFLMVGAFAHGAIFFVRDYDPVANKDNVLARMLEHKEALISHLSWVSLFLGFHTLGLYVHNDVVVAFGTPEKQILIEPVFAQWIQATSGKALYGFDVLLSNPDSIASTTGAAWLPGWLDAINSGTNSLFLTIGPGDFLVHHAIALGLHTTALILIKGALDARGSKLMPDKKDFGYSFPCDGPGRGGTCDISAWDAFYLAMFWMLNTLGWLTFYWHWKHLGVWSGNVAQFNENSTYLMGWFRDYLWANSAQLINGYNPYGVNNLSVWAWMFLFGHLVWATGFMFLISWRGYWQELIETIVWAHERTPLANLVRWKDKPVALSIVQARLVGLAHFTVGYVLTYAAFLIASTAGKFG

B1: PsbI subunit of PSII (natural protein)
chain: not shown
notes: PsbI of Synechocystis sp; PCC 6803; source: endogenous, Synechocystis sp; PCC 6803 strain His-D2/ΔCP47; co-purified with His-tagged D2 (Ni-NTA, sucrose gradient)
For the molecule B1, the binding result in the assay with PsaB RC subunit of PSI is listed as “binds”.

B2: PsbF, beta subunit of Cyt b-559 (natural protein)
chain: not shown
notes: PsbF (cytochrome b-559 beta subunit) of Synechocystis sp; PCC 6803; source: endogenous, Synechocystis sp; PCC 6803 strain His-D2/ΔCP47; co-purified with His-tagged D2 (Ni-NTA, sucrose gradient)
Regarding B2, the binding result with PsaI subunit of PSI was “binds”.
